From US20180155451A1 (published 2018)
Each block holds one binder with its values, some of them ahead of it.

Legend:
[1] = target: T1, FcγRIa (human, UniProt P12314 16-292); experiment: SPR (Biacore), antibody captured, FcγR as analyte; binding as % of GpH7-A5/GpH7-B3/GpL16-k0
T1 construct: extracellular domain; also called FcgRI; 1a; not shown: His tag at the C terminus

[2] = target: T2, FcγRIIb (human, UniProt P31994 43-217); experiment: as above
T2 construct: extracellular domain; also called FcgRIIb; 2b; not shown: His tag at the C terminus
T2 sequence (looked up): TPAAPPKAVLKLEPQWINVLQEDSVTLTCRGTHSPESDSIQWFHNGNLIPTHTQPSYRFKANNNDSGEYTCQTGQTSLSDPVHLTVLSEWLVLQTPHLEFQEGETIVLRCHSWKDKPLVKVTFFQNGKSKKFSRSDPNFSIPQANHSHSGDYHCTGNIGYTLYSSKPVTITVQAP

[3] = target: T3, FcγRIIIa extracellular domain with C-terminal His tag (human, UniProt P08637 17-208); experiment: SPR (Biacore), antibody captured on antigen-peptide chip, FcγR analyte, relative binding
T3 construct: extracellular domain; also called 3a; FcgRIIIa
T3 sequence (P08637 17-208): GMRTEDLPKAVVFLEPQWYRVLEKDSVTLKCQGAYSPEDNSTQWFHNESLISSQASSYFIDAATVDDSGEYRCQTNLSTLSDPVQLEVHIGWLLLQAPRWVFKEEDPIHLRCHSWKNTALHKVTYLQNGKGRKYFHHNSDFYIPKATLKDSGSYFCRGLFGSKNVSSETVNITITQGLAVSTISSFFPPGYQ

T1 sequence (P12314 16-292): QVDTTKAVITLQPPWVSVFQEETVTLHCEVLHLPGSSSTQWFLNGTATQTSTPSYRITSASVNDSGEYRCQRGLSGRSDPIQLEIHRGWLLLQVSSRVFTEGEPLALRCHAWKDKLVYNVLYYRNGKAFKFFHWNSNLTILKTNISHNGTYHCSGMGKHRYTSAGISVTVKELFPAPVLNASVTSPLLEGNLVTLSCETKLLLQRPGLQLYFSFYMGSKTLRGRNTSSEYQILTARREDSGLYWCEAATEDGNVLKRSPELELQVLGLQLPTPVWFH

B1: GpH7-A5/GpH7-B3 variant P331_04F/GpL16-k0 (antibody, human IgG1, kappa)
heavy 1: not shown
heavy 2: not shown
light: DIVMTQSPLSLPVTPGEPASISCQASESLVHSNRNTYLHWYLQKPGQSPQLLIYKVSNRFSGVPDRFSGSGSGTDFTLKISRVEAEDVGVYYCSQNTHVPPTFGQGTKVEIERTVAAPSVFIFPPSDEQLKSGTASVVCLLNNFYPREAKVQWKVDNALQSGNSQESVTEQDSKDSTYSLSSTLTLSKADYEKHKVYACEVTHQGLSSPVTKSFNRGEC
notes: heterodimerized IgG1; alteration in the GpH7-B3 H chain only; also called He Ab
He/Con_1a [1]: 95.5 % of control
He/Con_2b [2]: 110 % of control

B2: GpH7-B3 variant S324_01G/GpL16-k0 (homodimerized antibody, Ho Ab) (antibody, human IgG1, kappa)
heavy: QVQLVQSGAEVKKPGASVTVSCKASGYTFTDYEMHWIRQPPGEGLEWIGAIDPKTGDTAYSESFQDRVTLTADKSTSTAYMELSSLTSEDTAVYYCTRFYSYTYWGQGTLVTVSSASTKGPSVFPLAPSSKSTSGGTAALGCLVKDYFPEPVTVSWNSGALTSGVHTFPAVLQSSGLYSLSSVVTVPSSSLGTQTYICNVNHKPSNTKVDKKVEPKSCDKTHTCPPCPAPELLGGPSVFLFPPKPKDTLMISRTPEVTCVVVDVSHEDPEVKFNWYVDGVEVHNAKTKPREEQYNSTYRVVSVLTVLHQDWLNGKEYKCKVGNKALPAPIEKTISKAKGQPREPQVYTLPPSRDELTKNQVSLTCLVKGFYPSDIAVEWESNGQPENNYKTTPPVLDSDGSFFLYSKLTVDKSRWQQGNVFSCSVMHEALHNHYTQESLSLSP
light: DIVMTQSPLSLPVTPGEPASISCQASESLVHSNRNTYLHWYLQKPGQSPQLLIYKVSNRFSGVPDRFSGSGSGTDFTLKISRVEAEDVGVYYCSQNTHVPPTFGQGTKVEIERTVAAPSVFIFPPSDEQLKSGTASVVCLLNNFYPREAKVQWKVDNALQSGNSQESVTEQDSKDSTYSLSSTLTLSKADYEKHKVYACEVTHQGLSSPVTKSFNRGEC
notes: Mutation in both H chains; also called S324_01G Ho Ab
Ho/Con_3a [3]: 119 % of GpH7-B3/GpL16-k0 (=100)

B3: GpH7-A5/GpH7-B3 variant P331_07I/GpL16-k0 (antibody, human IgG1, kappa)
heavy 1: not shown
heavy 2: not shown
light: DIVMTQSPLSLPVTPGEPASISCQASESLVHSNRNTYLHWYLQKPGQSPQLLIYKVSNRFSGVPDRFSGSGSGTDFTLKISRVEAEDVGVYYCSQNTHVPPTFGQGTKVEIERTVAAPSVFIFPPSDEQLKSGTASVVCLLNNFYPREAKVQWKVDNALQSGNSQESVTEQDSKDSTYSLSSTLTLSKADYEKHKVYACEVTHQGLSSPVTKSFNRGEC
notes: as for B1
He/Con_1a [1]: 93.4 % of control
He/Con_2b [2]: 114 % of control

B4: GpH7-A5/GpH7-B3 variant P331_06M/GpL16-k0 (antibody, human IgG1, kappa)
heavy 1: not shown
heavy 2: not shown
light: DIVMTQSPLSLPVTPGEPASISCQASESLVHSNRNTYLHWYLQKPGQSPQLLIYKVSNRFSGVPDRFSGSGSGTDFTLKISRVEAEDVGVYYCSQNTHVPPTFGQGTKVEIERTVAAPSVFIFPPSDEQLKSGTASVVCLLNNFYPREAKVQWKVDNALQSGNSQESVTEQDSKDSTYSLSSTLTLSKADYEKHKVYACEVTHQGLSSPVTKSFNRGEC
notes: as for B1
He/Con_1a [1]: 93.6 % of control
He/Con_2b [2]: 102 % of control

B5: GpH7-A5/GpH7-B3 variant P331_15Y/GpL16-k0 (antibody, human IgG1, kappa)
heavy 1: not shown
heavy 2: not shown
light: DIVMTQSPLSLPVTPGEPASISCQASESLVHSNRNTYLHWYLQKPGQSPQLLIYKVSNRFSGVPDRFSGSGSGTDFTLKISRVEAEDVGVYYCSQNTHVPPTFGQGTKVEIERTVAAPSVFIFPPSDEQLKSGTASVVCLLNNFYPREAKVQWKVDNALQSGNSQESVTEQDSKDSTYSLSSTLTLSKADYEKHKVYACEVTHQGLSSPVTKSFNRGEC
notes: as for B1
He/Con_1a [1]: 96 % of control
He/Con_2b [2]: 114 % of control

B8: GpH7-B3 variant S239_18N/GpL16-k0 (homodimerized antibody, Ho Ab) (antibody, human IgG1, kappa)
heavy: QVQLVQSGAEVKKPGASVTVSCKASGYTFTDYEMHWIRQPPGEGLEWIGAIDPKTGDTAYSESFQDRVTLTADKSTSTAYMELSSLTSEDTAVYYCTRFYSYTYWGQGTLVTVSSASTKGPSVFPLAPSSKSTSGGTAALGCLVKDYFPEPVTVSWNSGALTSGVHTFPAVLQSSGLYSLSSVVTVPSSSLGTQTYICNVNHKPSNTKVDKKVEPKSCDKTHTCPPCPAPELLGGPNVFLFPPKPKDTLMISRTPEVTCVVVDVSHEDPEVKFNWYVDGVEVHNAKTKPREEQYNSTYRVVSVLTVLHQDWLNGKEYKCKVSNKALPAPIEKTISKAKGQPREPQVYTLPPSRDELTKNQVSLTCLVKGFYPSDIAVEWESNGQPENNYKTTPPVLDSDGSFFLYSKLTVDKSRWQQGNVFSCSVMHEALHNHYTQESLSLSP
light: DIVMTQSPLSLPVTPGEPASISCQASESLVHSNRNTYLHWYLQKPGQSPQLLIYKVSNRFSGVPDRFSGSGSGTDFTLKISRVEAEDVGVYYCSQNTHVPPTFGQGTKVEIERTVAAPSVFIFPPSDEQLKSGTASVVCLLNNFYPREAKVQWKVDNALQSGNSQESVTEQDSKDSTYSLSSTLTLSKADYEKHKVYACEVTHQGLSSPVTKSFNRGEC
notes: Mutation in both H chains; also called S239_18N Ho Ab
Ho/Con_3a [3]: 116 % of GpH7-B3/GpL16-k0 (=100)

The remaining lines, values ahead:

Ho/Con_3a [3]: 107 % of GpH7-B3/GpL16-k0 (=100)
B6: GpH7-B3 variant T335_06M/GpL16-k0 (homodimerized antibody, Ho Ab) (antibody, human IgG1, kappa)
heavy: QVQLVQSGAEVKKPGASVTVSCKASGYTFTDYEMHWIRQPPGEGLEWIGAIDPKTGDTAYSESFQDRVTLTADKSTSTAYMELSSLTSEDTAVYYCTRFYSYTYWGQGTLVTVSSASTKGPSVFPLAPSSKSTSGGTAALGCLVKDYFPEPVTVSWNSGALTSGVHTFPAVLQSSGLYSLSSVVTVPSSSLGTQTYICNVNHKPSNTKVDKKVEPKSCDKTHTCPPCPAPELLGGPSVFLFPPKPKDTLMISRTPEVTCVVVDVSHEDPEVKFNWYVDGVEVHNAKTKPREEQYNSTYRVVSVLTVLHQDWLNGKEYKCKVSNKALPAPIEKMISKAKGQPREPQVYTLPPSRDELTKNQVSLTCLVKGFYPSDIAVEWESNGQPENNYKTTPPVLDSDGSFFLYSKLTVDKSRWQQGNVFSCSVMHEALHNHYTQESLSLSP
light: DIVMTQSPLSLPVTPGEPASISCQASESLVHSNRNTYLHWYLQKPGQSPQLLIYKVSNRFSGVPDRFSGSGSGTDFTLKISRVEAEDVGVYYCSQNTHVPPTFGQGTKVEIERTVAAPSVFIFPPSDEQLKSGTASVVCLLNNFYPREAKVQWKVDNALQSGNSQESVTEQDSKDSTYSLSSTLTLSKADYEKHKVYACEVTHQGLSSPVTKSFNRGEC
notes: Mutation in both H chains; also called T335_06M Ho Ab

Ho/Con_3a [3]: 102 % of GpH7-B3/GpL16-k0 (=100)
B7: GpH7-B3 variant S324_20W/GpL16-k0 (homodimerized antibody, Ho Ab) (antibody, human IgG1, kappa)
heavy: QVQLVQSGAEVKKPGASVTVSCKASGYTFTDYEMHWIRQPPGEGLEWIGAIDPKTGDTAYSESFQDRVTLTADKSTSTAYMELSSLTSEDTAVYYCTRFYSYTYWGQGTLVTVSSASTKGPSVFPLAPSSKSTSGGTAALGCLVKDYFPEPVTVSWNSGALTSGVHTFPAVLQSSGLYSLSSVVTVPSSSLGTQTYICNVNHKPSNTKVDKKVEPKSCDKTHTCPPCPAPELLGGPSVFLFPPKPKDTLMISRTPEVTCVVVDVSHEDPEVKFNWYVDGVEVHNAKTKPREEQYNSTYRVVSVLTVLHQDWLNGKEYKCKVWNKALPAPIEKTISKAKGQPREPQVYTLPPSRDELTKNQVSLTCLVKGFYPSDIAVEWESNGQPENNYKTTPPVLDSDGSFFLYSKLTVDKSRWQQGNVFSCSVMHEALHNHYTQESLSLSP
light: DIVMTQSPLSLPVTPGEPASISCQASESLVHSNRNTYLHWYLQKPGQSPQLLIYKVSNRFSGVPDRFSGSGSGTDFTLKISRVEAEDVGVYYCSQNTHVPPTFGQGTKVEIERTVAAPSVFIFPPSDEQLKSGTASVVCLLNNFYPREAKVQWKVDNALQSGNSQESVTEQDSKDSTYSLSSTLTLSKADYEKHKVYACEVTHQGLSSPVTKSFNRGEC
notes: Mutation in both H chains; also called S324_20W Ho Ab

Ho/Con_3a [3]: 110 % of GpH7-B3/GpL16-k0 (=100)
B9: GpH7-B3 variant S298_03V/GpL16-k0 (homodimerized antibody, Ho Ab) (antibody, human IgG1, kappa)
heavy: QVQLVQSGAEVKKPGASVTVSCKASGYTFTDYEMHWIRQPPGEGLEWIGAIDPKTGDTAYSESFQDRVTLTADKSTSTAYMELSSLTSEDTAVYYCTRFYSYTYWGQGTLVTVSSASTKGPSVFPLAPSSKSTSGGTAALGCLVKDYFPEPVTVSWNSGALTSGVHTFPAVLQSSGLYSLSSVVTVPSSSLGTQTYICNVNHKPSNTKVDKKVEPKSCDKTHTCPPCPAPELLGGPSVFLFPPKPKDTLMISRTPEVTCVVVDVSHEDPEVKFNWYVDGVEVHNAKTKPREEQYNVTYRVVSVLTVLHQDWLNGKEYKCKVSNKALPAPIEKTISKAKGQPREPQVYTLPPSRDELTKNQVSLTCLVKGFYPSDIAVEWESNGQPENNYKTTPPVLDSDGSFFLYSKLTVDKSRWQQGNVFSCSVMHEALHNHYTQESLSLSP
light: DIVMTQSPLSLPVTPGEPASISCQASESLVHSNRNTYLHWYLQKPGQSPQLLIYKVSNRFSGVPDRFSGSGSGTDFTLKISRVEAEDVGVYYCSQNTHVPPTFGQGTKVEIERTVAAPSVFIFPPSDEQLKSGTASVVCLLNNFYPREAKVQWKVDNALQSGNSQESVTEQDSKDSTYSLSSTLTLSKADYEKHKVYACEVTHQGLSSPVTKSFNRGEC
notes: Mutation in both H chains; also called S298_03V Ho Ab

Ho/Con_3a [3]: 101 % of GpH7-B3/GpL16-k0 (=100)
B10: GpH7-B3 variant S324_09D/GpL16-k0 (homodimerized antibody, Ho Ab) (antibody, human IgG1, kappa)
heavy: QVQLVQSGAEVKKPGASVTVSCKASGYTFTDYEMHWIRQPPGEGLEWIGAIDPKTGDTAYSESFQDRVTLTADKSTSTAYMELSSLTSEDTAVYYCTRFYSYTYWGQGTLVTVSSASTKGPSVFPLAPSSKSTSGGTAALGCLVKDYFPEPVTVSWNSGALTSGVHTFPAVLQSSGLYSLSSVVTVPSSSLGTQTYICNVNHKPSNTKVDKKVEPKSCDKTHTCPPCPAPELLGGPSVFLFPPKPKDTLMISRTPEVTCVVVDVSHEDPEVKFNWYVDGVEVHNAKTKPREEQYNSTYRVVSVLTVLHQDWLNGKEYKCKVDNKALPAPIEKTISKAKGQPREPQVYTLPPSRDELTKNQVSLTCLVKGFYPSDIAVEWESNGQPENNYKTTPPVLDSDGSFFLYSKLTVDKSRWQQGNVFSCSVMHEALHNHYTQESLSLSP
light: DIVMTQSPLSLPVTPGEPASISCQASESLVHSNRNTYLHWYLQKPGQSPQLLIYKVSNRFSGVPDRFSGSGSGTDFTLKISRVEAEDVGVYYCSQNTHVPPTFGQGTKVEIERTVAAPSVFIFPPSDEQLKSGTASVVCLLNNFYPREAKVQWKVDNALQSGNSQESVTEQDSKDSTYSLSSTLTLSKADYEKHKVYACEVTHQGLSSPVTKSFNRGEC
notes: Mutation in both H chains; also called S324_09D Ho Ab
